According to patent US12241090B2, “Methods and systems for converting precursor cells into gastric tissues through directed differentiation” (CHILDREN'S HOSPITAL MEDICAL CENTER, priority 2014, dated 2025):

B1: Wnt3a: recombinant WNT3A, Wnt ligand (R&D Systems) (protein, UniProt P56704 19-352, looked up)
Protein Wnt-3a: SYPIWWSLAVGPQYSSLGSQPILCASIPGLVPKQLRFCRNYVEIMPSVAEGIKIGIQECQHQFRGRRWNCTTVHDSLAIFGPVLDKATRESAFVHAIASAGVAFAVTRSCAEGTAAICGCSSRHQGSPGKGWKWGGCSEDIEFGGMVSREFADARENRPDARSAMNRHNNEAGRQAIASHMHLKCKCHGLSGSCEVKTCWWSQPDFRAIGDFLKDKYDSASEMVVEKHRESRGWVETLRPRYTYFKVPTERDLVYYEASPNFCEPNPETGSFGTRDRTCNVSSHGIDGCDLLCCGRGHNARAERRREKCRCVFHWCCYVSCQECTRVYDVHTCK
B2: Noggin: BMP antagonist / BMP inhibitor (R&D Systems) (protein, UniProt Q13253 28-232, looked up)
Noggin: QHYLHIRPAPSDNLPLVDLIEHPDPIFDPKEKDLNETLLRSLLGGHYDPGFMATSPPEDRPGGGGGAAGGAEDLAELDQLLRQRPSGAMPSEIKGLEFSEGLAQGKKQRLSKKLRRKLQMWLWSQTFCPVLYAWNDLGSRFWPRYVKVGSCFSKRSCSVPEGMVCKPSKSVHLTVLRWRCQRRGGQRCGWIPIQYPIISECKCSC

Key:
[1] = tested on: hPSC-derived foregut spheroids; experiment: Fundus specification protocol: Wnt signaling at days 6-9 of gastric organoid differentiation, qPCR; type: cell-based, human; settings: Wnt3a at 100 ng/mL and 500 ng/mL
Protocol: Next, the function of Wnt signaling in the regulation of fundus-antrum patterning at days 6-9 of the gastric organoid differentiation protocol was tested. Addition of Wnt3a (at 100 ng/mL and 500 ng/mL) had no effect on spheroid gene expression, but it […] expression of the Wnt target gene Axin2. Thus, the effects of the small molecule CHIR99021 (CHIR; 2 uM) were tested. CHIR99021 stimulates Wnt signaling in a receptor-independent fashion.
Analysis was performed using the ΔΔCT method.

[2] = tested on: hPSC-derived definitive endoderm (DE) cultures; experiment: Endoderm patterning of hPSC-derived DE cultures with growth factors/antagonists, qPCR and immunofluorescence; type: cell-based, human
Protocol: Following DE induction, cells were treated for three days with growth factors/antagonists in RPMI 1640 with 2.0% dFBS. […] RA (2 μM; Sigma Aldrich) is added on the final day. Three-dimensional growth and antral specification. Posterior foregut spheroids were embedded in Matrigel (BD Biosciences) as previously described^10, 12 and subsequently grown in Advanced DMEM/F12 (Invitrogen) supplemented with N2 (Invitrogen), B27 (Invitrogen), L-glutamine, 10 μM HEPES, penicillin/streptomycin, and EGF (100 ng ml^−1; R&D Systems). For antral specification, RA and noggin were added for the first three days of three-dimensional growth. For endocrine cell specification, the EGF concentration is lowered to 10 ng ml^−1 at day 30.
The media was changed every day.
All tissues were fixed in 4% paraformaldehyde for either one hour at room temperature for frozen processing or overnight at 4° C. for paraffin processing. For frozen sections, tissue was protected in 30% sucrose overnight at 4° C., then embedded in OCT (Tissue-Tek), and cut at 10 μm. For paraffin sections, tissue was processed through a graded ethanol series, followed by xylene, and then embedded in paraffin and cut at 7 μm. Tissue culture cells were fixed for 15 minutes at room temperature and stained directly. For staining, frozen slides were thawed to room temperature and rehydrated in PBS, while paraffin slides were deparaffinized and subjected to antigen retrieval. Slides were blocked in 5% normal donkey serum (Jackson Immuno Research) in PBS plus 0.5% Triton-X for 30 minutes at room temperature. Primary antibodies (listed in Methods Table 1) were diluted in blocking buffer and incubated overnight at 4° C. Slides were washed in PBS and incubated with secondary antibody for one hour at room temperature, and coverslips were mounted using Fluoromount-G (Southern Biotech). Confocal images were captured on a Nikon A1Rsi inverted confocal microscope.

[3] = DE cultures after three days, even in the presence of WNT/FGF

| Molecule | effect on spheroid gene expression [1] | expression of the Wnt target gene Axin2 [1] | CDX2 expression [2, 3] | foregut marker SOX2 expression [2, 3] | BMP target genes MSX1/2, qPCR ([2]; response to noggin) |
| --- | --- | --- | --- | --- | --- |
| B1 | no effect | did induce |  |  |  |
| B2 |  |  | repressed | induced | suppressed |
